# Measurements as given in the supplement of paper PMC10567573.
# ± gives the standard deviation.
# Assay: protein stability index of a GFP-peptide fusion (GPS, HEK-293T) (PSI 1-6); higher = more stable
# [1] = treatment: DMSO, c terminus: a fixed tail appended
# [2] = treatment: MLN4924 1 uM, 8 h, c terminus: a fixed tail appended
# 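Further: 24-mer peptide tiles fused after GFP, lentivirally expressed, FACS-sorted into six equal bins by GFP/DsRed ratio, decoded by Illumina sequencing, PSI is the read-weighted mean bin number.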
Sequence,protein stability index [1],protein stability index [2],"protein stability index (treatment: DMSO, c terminus: native)","protein stability index (treatment: MLN4924 1 uM, 8 h, c terminus: native)"
LKDNPLDPVLAKVAGDCLDEKQCK [LRRC59],5.13 ± 0.44,5.19 ± 0.27,–,–
LKGGLQEVAEQLELERIGPQHQAG [CNOT7],4.67 ± 0.14,4.94 ± 0.22,–,–
LKNHFQSVLEQLELQEKQKNEKLI [TAF7L],2.82 ± 0.12,2.95 ± 0.22,–,–
LKNIRHRPGGGRVKIESVKLDFKE [MAP2],3.22 ± 0.29,3.52 ± 0.38,–,–
LKVVHELPACTLCAGPLEDAVTIP [TRIM15],2.76 ± 0.13,3.15 ± 0.26,–,–
LLFEYPESSSPARGIAIVSVLVIL [KCNA4],2.92 ± 0.2,3 ± 0.36,–,–
LLGLGVLLFSGGLSESETGPMEEV [PBXIP1],2.22 ± 0.062,2.32 ± 0.31,–,–
LLNAASTVARPVFTEYQASAFGNV [RHOBTB3],2.48 ± 0.21,2.72 ± 0.31,–,–
LLPYFYIIYMAILLTHRCLRDEHR [DHCR7],3.25 ± 0.52,3.05 ± 0.2,–,–
LLQKYNMQFLIRSHECKPEGYEFC [PPEF2],2.5 ± 0.84,2.27 ± 0.49,–,–
LLSQEKLQEQHLSSPQGVQLDIAS [BCL2L13],4.45 ± 0.14,4.36 ± 0.15,–,–
LLVQDATPVSNSLLPEKAFSDIPS [GFOD1],3.35 ± 0.24,3.37 ± 0.22,–,–
LNGYRLGERVLQVSFKTSKQHKA [ELAVL3],–,–,3.16 ± 0.29,2.69 ± 0.42
LNSVERYDPKTNQWSSDVAPTSTC [KLHL20],4.18 ± 0.097,4.24 ± 0.43,–,–
LPCTSRCPRPCRESAFKLSTGTSR [SCNN1D],2.64 ± 0.99,2.9 ± 0.38,–,–
LPCVVQEGAIVMARGRHVGSSETN [PYCR3],4.42 ± 0.36,–,–,–
LPGPKGDDGKLGATGPMGMRGFKG [SCARA5],4.7 ± 0.46,4.48 ± 0.2,–,–
LPLSHIAAQMMDIWVPIKIGALTY [ACSBG2],2.79 ± 0.76,2.73 ± 0.82,–,–
LQDLQVTDILPQMITLSEAYIQIW [USP39],2.58 ± 0.54,2.55 ± 0.77,–,–
LQHTQELFPQWHLPIKIAAIIASL [STEAP1],2.16 ± 0.35,2.1 ± 0.24,–,–
LQLKQELAMLNAVTEDLRLKDWEH [SCARA5],3.36 ± 0.046,3.34 ± 0.24,–,–
LQNEVPPQPDPVFLEALSSRYLGD [SERTAD3],4.32 ± 0.15,4.25 ± 0.14,–,–

Sequence,protein stability index [1],protein stability index [2],"protein stability index (treatment: DMSO, c terminus: native)","protein stability index (treatment: MLN4924 1 uM, 8 h, c terminus: native)"
LQSCQAEIIELRRTVNALEIELQA [KRT34],2.15 ± 0.45,2.11 ± 0.29,–,–
LQSGQEYVFFVLAVMEHAESKMYA [PTPRD],2.4 ± 0.63,2.51 ± 0.75,–,–
LRHSFQKQQREKTRWLNSGRGDEA [ADD1],3.63 ± 0.5,3.92 ± 0.35,–,–
LSDKSCQSFISWTGDGWEFKLADP [ETS2],2.49 ± 0.22,2.59 ± 0.36,–,–
LSDNATAFSNRSKQLRRQMWWRGC [VAMP4],2.54 ± 0.048,2.67 ± 0.33,–,–
LSDVQNPAISITENVLHFKAQGHG [HACD3],4.13 ± 0.19,4.28 ± 0.15,–,–
LSEDDKLQGAASHVPEGFDPTGPA [EHMT1],5.333 ± 0.053,5.4 ± 0.073,–,–
LSEYVSRMKETQKSIYYITGESKE [HSP90AB1],3.69 ± 0.24,3.67 ± 0.2,–,–
LSPLSLAQYDSWPHYPEYFQQPAP [LOXL2],2.62 ± 0.12,2.87 ± 0.18,–,–
LSSAVWPGGETEALTRLERHLERK [CRY1],4.44 ± 0.22,4.27 ± 0.061,–,–
LSTLLAPYQALRLWARGTWTQATG [SOAT2],2.4 ± 0.55,2.08 ± 0.55,–,–
LSVSNNQEPDFIDDIEEKTPISNE [KMT2E],4.69 ± 0.37,4.75 ± 0.21,–,–
LTPKGGVRTSYQPSSPGRFTKETT [TRIM29],4.17 ± 0.16,4.21 ± 0.11,–,–
LTPKSTPVKTLPFSPSQFLNFWNK [MYBL2],2.24 ± 0.26,2.4 ± 0.18,–,–
LTQDWVQENYLEYRQVPGSDPARY [MAGEA10],4.06 ± 0.22,3.88 ± 0.2,–,–
LVVADDKMAAFHGAGLKRYLLTVM [ADAMTS4],2.72 ± 0.63,2.35 ± 0.61,–,–
LVVILLSIVAVGFHIFRTLEVNRL [PKD2L1],3.44 ± 0.88,3.12 ± 0.23,–,–
LWHLAITDRSFNIVDIKPANMEDL [PPP2R2C],2.36 ± 0.23,2.41 ± 0.28,–,–
LWNGDKYAATTTPFTPLHIKVKPK [TRIM39],2.99 ± 0.27,3.28 ± 0.38,–,–
MAFLDKRLQVKEHQHEEIQNVRNH [ATL3],3.84 ± 0.069,3.98 ± 0.23,–,–
MAPDPVAAETAAQGPTPRYFTWDE [FADS1],4.7 ± 0.17,4.83 ± 0.27,–,–
MAPKTKKGCKVTLPEKPVKLASHT [FBF1],4.16 ± 0.15,4.21 ± 0.087,–,–
